Test system: MS2 coat protein
Assay: apparent KD of MS2 coat protein; higher = weaker reporter binding
Conditions: Eterna round: R107
Method in brief: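 Apparent KD per design is the median of normalised cluster binding-curve fits. Designed RNA switches transcribed on-chip from Illumina sequencing clusters were titrated with SNAP-549-labelled MS2 coat protein in twofold steps from 0.7 or 1.5 nM to 3 µM, with 0.8–1.5 h down to 10–20 min per step. Buffer: 100 mM Tris-HCl pH 7.5, 80 mM KCl, 4 mM MgCl2, without or with constant ligand.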

[1] = input ligand: theophylline 20 uM
[2] = input ligand: theophylline 2 mM
[3] = input ligand: tryptophan 2.4 mM

Sequence	apparent KD of MS2 coat protein (input ligand: arginine 13.2 mM)	apparent KD of MS2 coat protein (input ligand: none)	apparent KD of MS2 coat protein [1]	apparent KD of MS2 coat protein [2]	apparent KD of MS2 coat protein [3]
AAUACCGGUCCUCGAAGCAUGGGUGAUCAACGAGGACCGGUACGGCCGCCACUCGAUAACAUGAGGAUCACCCAUGUAAUAAUAA [|T'-M'-Trp-Ms2|_Design5]	34.4 nM	313 nM	395 nM	552 nM	569 nM
UGACAUUGCUCAGAUACCAGACAUGAGGAUCACCCAUGUGCCAAAUACGUACAAAUAAAUGUCCCUUGGCAGCUGAGCAAUGUCU [TheoBX 12 #MS2Left #Theo2]	16.2 nM		22.2 nM		14.4 nM
ACAUGAGGAUCACCCAUGUAUCAACGGGAAGGAGCGCCAAACAAGGCAGGUAGGUCGCCCACAUGAGGAUCACCCAUGUGUUGGU [Exclusion Arginine A GF 29]	20.6 nM	21.4 nM	25.8 nM	24.9 nM	21.1 nM
UUUAAAAUCAGAAGGAGCGUGAUAAACAUGAGGAUCACCCAUGUCGAAAAUUUAAUAUAAUCACAGGUAGGUCGCUGUAAUAUUU [Same State - Ariginine B]	14.2 nM	14 nM	18.6 nM	16.5 nM	14.2 nM
GACCUUGCGGGCGCCCGCAAGGUUGCGGAUACCAGCGAGGUCCAUCGCCCUUGGCAGCCGAACAUGAGGAUCACCCAUGUCGGAC [Same State - Theophylline A Attempt #3 (HarryS)]	10.3 nM	11.4 nM	18.2 nM	15.8 nM	11.2 nM
AGAUUCGACACGGCCGCCACUCGUGGAGGAUUUCCGAGUGUCGAACAUGAGGAUCACCCAUGUACGAGGACCGGGUGUUGAGUCU [XTryp B #14]	21.1 nM		43.4 nM	32.2 nM	
AUACAUGAGGAUCACCCAUGUGAUGGCCGGCGAGGACCGGUACGGCCGCCACUCGUGAUCCGUCCUGAAAGCAAAGCUUCCAGCA [Terion]	37.4 nM		273 nM	437 nM	
CUAUAAUGAAAACAUUAUAGAGUGGGUGAACGAGGACCGGUACGGCCGCCACUCGGACAUGAGGAUCACCCAUGUCCAUGUGAAA [AstrosExyTryA#24]	11.2 nM	15.6 nM	18.9 nM	17.7 nM	31.9 nM
UAGUUGCUGACGGCCGCCACUAGAACAUGAGGAUCACCCAUGUAUUCUAGUGGACAUGGGUGGACUAGGACCGGGUCAGCAACAU [(Trp1)-(Ms2)-(T)'-(M)'-(Trp2)_Design9]	21 nM	20.6 nM	37.8 nM	21 nM	30.8 nM
GGGACAUGAGGAUCACCCAUGUACCGGUCCCGAGGACCGGUACGGCCGCCACUCGAUGACCUCAUAGUCUGCCUGAGCAGCAGAC [Abebeti]	49.1 nM		96.6 nM	140 nM	
UACAUGAGGAUCACCCAUGUCUGAACUGAAGGAGCGCUAAAUAAGGCAGGUAGGUCGCGGAAUUUUGUGUGCAUAUGCAUAUGGG [9.L]	34.5 nM	36.4 nM	39.4 nM	37.9 nM	38.2 nM
GCCUAGCAGCGAAGGAGCGAGGUAAAUAAAUAAAUAAAUAACAAGAGGAUCACCCUUGUUCCUCAGGUAGGUCGCGCUGCUAGGC [SSAB Alternative Aptamer #1 NP+V+V2]	16 nM	17.5 nM	22.7 nM	18.9 nM	17.9 nM
UUUUUCAUAGGUUAUAGUUUAGAAACUGAAGGAGCGUGGUAAUACACAGGUAGGUCGCAGAUUUUACAUGAGGAUCACCCAUGUU [JR_ExcArginiA_Sub014]	22.1 nM	23.2 nM	27.3 nM	27 nM	25.6 nM
ACAUUUAACUGAAGGAGCGUGAAUAACAUGAGGAUCACCCAUGUAACUUAGAUUCUUAUAUCACAGGUAGGUCGCAGACUAAUGA [JR_ExcArginiB_Sub012]	24.9 nM	17 nM	25.7 nM	21.5 nM	19 nM
UGUAUUACGAAAGUAGUACAUCGUGUUCGACGAGGACCGGUACGGCCGCCACUCGGACAUGAGGAUCACCCAUGUAGCGAAAGCU [Tryptophan A 25]	93.8 nM		354 nM	491 nM	
